Data from the nanobody polyreactivity screen of Harvey et al. (2022).

Experiment: yeast display, Sf9 membrane polyspecificity reagent, FACS + sequencing; frameworks hold sequencing errors
Method in brief: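 Nanobodies from a synthetic yeast display library (Saccharomyces cerevisiae BJ5465), induced 36–48 hours with galactose, were stained 1 hour at 4 °C with 10% biotinylated, detergent-solubilized Sf9 membrane reagent, enriched on streptavidin microbeads, then FACS-sorted. Anti-HA (expression) and streptavidin (reagent binding) fluorescence set low and high (top ~1%) gates. Polyreactivity labels come from the gate of origin. Genes were colony-PCR amplified, MiSeq 2 × 250 sequenced and filtered by CDR length.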

Sequence | polyreactivity (PSR sort gate)
QVQLVESGGGLVQAGGSLRLSCAASGSILSTYAKGWYRQAPGKERELVASISSNAGSTYYADSVKGRFTISRDNAKNTVYLQMNSLKPEDTAVYYCNKVYGGGTYDYWGQGTQVTVSS | low polyreactivity
QVQLVESGGGLVQAGGSLRLSCAASGSILSTYAMGWYRQAPGKERELVASISSNAGSTYYADSVKGRFTISRDNAKNTVYLQMNSLKPEDTAVYYCNKDGKYHRVLYDYWGQGTQVTVSS | low polyreactivity
QVQLVESGGGLVQAGGSLRLSCAASGSILSYYAMGWYRQAPGKERELVAAISKSGGRTYYADSVKGRFTISRDNAKNTVYLQMNSLKPEETAVYYCAAEIVVFYSEGQRNTFYYWGQGTQVTVSS | high polyreactivity
QVQLVESGGGLVQAGGSLRLSCAASGSILSYYAMGWYRQAPGKERELVAAISKTGGRTYYADSVKGRFTISRDNAKNTVYLQMNSLKPEDTAVYYCAAVDTIGRYDYWGQGTQVTVSS | high polyreactivity
QVQLVESGGGLVQAGGSLRLSCAASGSILTAYAMGWYRQAPGKERELVAASNFSGDNTYYADSEKGRFTISRDNAKNTVYLQMNSLKPEDTAVYYCNADGRYAYVWYDYWGQGTQVTVSS | low polyreactivity
QVQLVESGGGLVQAGGSLRLSCAASGSILVAYAMGWYRQAPGKERELVAAISSVGNTYYADSVKGRFTISRDNAKNTVYLQMNSLIPEDTAVYYCNAVYRVWYAEWSTVGSPHDYWGQGTQVTVSS | low polyreactivity
QVQLVESGGGLVQAGGSLRLSCAASGSILVAYAMGWYRQAPGKERELVAAITQGGGSTYYADSVKGRFTISRDNAKNTVYLQMNSLKPEDTAVYYCNVGANVYLLYFPSRGGVYDYGYWGKGTQVTVSS | low polyreactivity
QVQLVESGGGLVQAGGSLRLSCAASGSILVGNAMGWYRQAPGKERELVAAISKSGSSTHYADSVKGRFTISRDNAKNTVYLQMNSLKPEDTAVYYCNAVGRVYRAKYDYWGQGTQVTVSS | high polyreactivity
QVQLVESGGGLVQAGGSLRLSCAASGSILYFYAMGWYRQAPGKEREFVAAISRSGGSTRYADSVKGRFTISRDNAKNTVYLQMNSLKPEDTAVYYCAATSRSYNDYDYWGQGTQVTVSS | high polyreactivity
QVQLVESGGGLVQAGGSLRLSCAASGSILYGNAMGWYRQAPGKERELVAAITTSGGRTYYADSVKGRFTISRDNAKNTVYLQLTSLKPEDTAVYYCAAASPTPVNWSGRDYYYWGQGTQVTVSS | high polyreactivity
QVQLVESGGGLVQAGGSLRLSCAASGSILYINAMGWYRQAPGKERELVAAITYSGGSTYYADSVKGRFTISRDNAKNTVYLQMNSLKPEDTAVYYWAADAVVAGRYDGHDYWGQGTQVTVSS | low polyreactivity
QVQLVESGGGLVQAGGSLRLSCAASGSILYRYAMGWYRQAPGKERELVAAITRSGGSTYYADSVKGRFTISRDNAKNTVYLQMNSLKPEDTAVYYCARQRKVSAHSIEMDYWGQGTQVTVSS | low polyreactivity
QVQLVESGGGLVQAGGSLRLSCAASGSILYRYAMGWYRQAPGKERELVAAITRSGGSTYYADSVKGRFTITRDNAKNTVYFQMNSLKPEDTAGYYCARQRKVSAHSIEMDYWGQGTQVTVSS | low polyreactivity
QVQLVESGGGLVQAGGSLRLSCAASGSILYTNAMGWYRQAPGKERELVAAITTSGASTYYADSVKGRFTISRDNAKNTVYLQMNSLKPEDTAVYYCAAPSRYRYYWGNYWGQGTQVTVSS | high polyreactivity
QVQLVESGGGLVQAGGSLRLSCAASGSILYVYAMGWYRQAPGKERELVAAISNRDGSTYYADSVKGRFTISRDNAKNTVYLQMNSLKPEDTAVYYCNADGYGDYSFLKYRFEYDYWGQGTQVTVSS | low polyreactivity
QVQLVESGGGLVQAGGSLRLSCAASGSILYVYAMGWYRQAPGKERELVAVITSGGSTNYADSVKGRFTISRDNAKNTVYLQMHSLKPEDSAVYHCAAYYDYDWKYAPSFDYGYWGQGTQVTVSS | low polyreactivity
QVQLVESGGGLVQAGGSLRLSCAASGSILYYYTMGWYRQAPGKERELVAAINTSGGITYYADSVKGRFTISRDNAKNTVYLQMNSLKPEDTAVYYCAAEGPEIKYYYWGQGTQVTVSL | low polyreactivity
